B1: NPADYGD, linear mimotope (peptide)
peptide: NPADYGD
B2: …, linear mimotope (peptide)
peptide: RLRWNPADYHG
B3: …, linear mimotope (peptide)
peptide: LRLNPADYG
B4: …, linear mimotope (peptide)
peptide: WNPADYGHI
B5: …, linear mimotope (peptide)
peptide: LRWNPADYH
B6: …, linear mimotope (peptide)
peptide: LRINPADYG
B7: LRYNPAD, linear mimotope (peptide)
peptide: LRYNPAD
B8: CNLKFNP, linear mimotope (peptide)
peptide: CNLKFNP
B9: RINPADY, linear mimotope (peptide)
peptide: RINPADY
B10: RLNPADY, linear mimotope (peptide)
peptide: RLNPADY
B11: …, linear mimotope (peptide)
peptide: QWIDVRLRYNP
B12: RYNPADY, linear mimotope (peptide)
peptide: RYNPADY
B13: LHWNPAD, linear mimotope (peptide)
peptide: LHWNPAD
B14: LRGNPAD, linear mimotope (peptide)
peptide: LRGNPAD
B15: …, linear mimotope (peptide)
peptide: RLYWNPADY
B16: …, linear mimotope (peptide)
peptide: RLRFNPADY
B17: NPADYHG, linear mimotope (peptide)
peptide: NPADYHG
B18: NPADYGR, linear mimotope (peptide)
peptide: NPADYGR
B19: …, linear mimotope (peptide)
peptide: LLGGGSLRFNP
B20: …, linear mimotope (peptide)
peptide: VRLRWNPADYP
B21: …, linear mimotope (peptide)
peptide: SLHWNPADY
B22: YNLKFNP, linear mimotope (peptide)
peptide: YNLKFNP
B23: …, linear mimotope (peptide)
peptide: RLRVNPADY
B24: …, linear mimotope (peptide)
peptide: IDVRLRFNP
B25: WNPDDYR, linear mimotope (peptide)
peptide: WNPDDYR
B26: …, linear mimotope (peptide)
peptide: RGNPADYGG
B27: …, linear mimotope (peptide)
peptide: SLRINPADY
B28: …, linear mimotope (peptide)
peptide: GGGSLRFNP
B29: RWNPADF, linear mimotope (peptide)
peptide: RWNPADF
B30: …, linear mimotope (peptide)
peptide: IDVRLRYNP

biological target: monoclonal antibody mAB 198; assay: peptide microarray, fluorescence, linear peptide

Row | relative signal [%] | Binder
1 | 14.1 | B1
2 | 12.4 | B2
3 | 17.3 | B3
4 | 13.7 | B4
5 | 15.3 | B5
6 | 12.6 | B6
7 | 15.9 | B7
8 | 11 | B8
9 | 12.2 | B9
10 | 17.7 | B10
11 | 13.4 | B11
12 | 16.5 | B12
13 | 15.7 | B13
14 | 48 | B14
15 | 11 | B15
16 | 11.4 | B16
17 | 59.3 | B17
18 | 12.2 | B18
19 | 16.7 | B19
20 | 56.7 | B20
21 | 13.6 | B21
22 | 13.7 | B22
23 | 14.9 | B23
24 | 15 | B24
25 | 11.4 | B25
26 | 13 | B26
27 | 11 | B27
28 | 13 | B28
29 | 12.6 | B29
30 | 12.2 | B30

Reference: patent publication US20230381328A1, “COMPOUND FOR THE PREVENTION OR TREATMENT OF MYASTHENIA GRAVIS” (ABLEVIA BIOTECH GMBH, priority 2020, published 2023)
